Changes are numbered by the printed parent chain.
B1: Hu3A5(V11) antibody (antibody, V domains shown)
VH: EVQLVQSGSELKKPGASVKVSCKASGYTFTSYWMHWMRQAPGQGLEWIGVIDPSDSYTSYNQGFTGRFVLSVDTSVSTAYLQISSLKAEDTAVYYCARGGKRAMDYWGQGTTVTVSS
VL: DVVMTQSPDSLAVSLGERATINCKSSQSLVHSNGNTYLHWYQQKPGQPPKLLIYKVSNRFSGVPDRFSGSGSGTDFTLTISSLQAEDVAVYFCSQSTHVPFTFGGGTKLEIK
B2: Hu3A5(V12) antibody (antibody, V domains shown)
VH: B1 VH
VL: B1 VL with F92Y
B3: Hu3A5(V15) antibody (antibody, V domains shown)
VH: B1 VH with E1Q, H35N, M37V, I48M, L70F
VL: B1 VL
B4: Hu3A5(V16) antibody (antibody, V domains shown)
VH: B1 VH with E1Q, H35N, M37V, I48M, L70F
VL: B1 VL with F92Y
B5: Hu3A5(V1) antibody (antibody, V domains shown)
VH: EVQLVQSGAEVKKPGASVKVSCKASGYTFTSYWMHWMRQAPGQGLEWIGVIDPSDSYTSYNQKFQGRVTLTVDTSTSTAYMELSSLRSEDTAVYYCARGGKRAMDYWGQGTTVTVSS
VL: DVVMTQSPLSLPVTLGQPASISCRSSQSLVHSNGNTYLHWFQQRPGQSPRLLIYKVSNRFSGVPDRFSGSGSGTDFTLKISRVEAEDVGVYFCSQSTHVPFTFGGGTKLEIK
B6: Hu3A5 (V3) antibody (antibody, V domains shown)
VH: B5 VH
VL: B1 VL
B7: Hu3A5 (V9) antibody (antibody, V domains shown)
VH: B1 VH
VL: B5 VL
B8: Hu3A5 (V4) antibody (antibody, V domains shown)
VH: B5 VH
VL: B1 VL with F92Y
B9: Hu3A5 (V6) antibody (antibody, V domains shown)
VH: B5 VH with E1Q, M37V, I48M, L70M
VL: B5 VL with F92Y
B10: Hu3A5(V10) antibody (antibody, V domains shown)
VH: B1 VH
VL: B5 VL with F92Y
notes: also called humanized 3A5(V10) antibody; humanized Hu3A5(V10) antibody
B11: Hu3A5 (V7) antibody (antibody, V domains shown)
VH: B5 VH with E1Q, M37V, I48M, L70M
VL: B1 VL
B12: Hu3A5 (V5) antibody (antibody, V domains shown)
VH: B5 VH with E1Q, M37V, I48M, L70M
VL: B5 VL
B13: Hu3A5(V13) antibody (antibody, V domains shown)
VH: B1 VH with E1Q, H35N, M37V, I48M, L70F
VL: B5 VL
B14: Hu3A5 (V2) antibody (antibody, V domains shown)
VH: B5 VH
VL: B5 VL with F92Y
B15: Hu3A5(V14) antibody (antibody, V domains shown)
VH: B1 VH with E1Q, H35N, M37V, I48M, L70F
VL: B5 VL with F92Y
B16: Hu3A5 (V8) antibody (antibody, V domains shown)
VH: B5 VH with E1Q, M37V, I48M, L70M
VL: B1 VL with F92Y

Each molecule was assayed against T1, CD47 protein (Acrobiosystems, cat #CD7-HA2E9) (UniProt Q08722 19-139) (assay: ELISA, CD47 protein coated 100 ng/well, 0.8 µg antibody per well).
T1 construct: Bought recombinant protein coated on the ELISA plate at 100 ng/well; also called CD47 antigen; CD47 peptide
Protocol: The purified 0.8 μg humanized antibody was treated in each well, and then reacted at room temperature for 2 hours, and then washed 3 times with 1×PBST. Secondary antibody ([…], 1:5,000) was treated and reacted at room temperature for 30 minutes, washed 3 times with 1×PBST, and then treated with TMB for color development and reacted at room temperature for 5 minutes. Finally, the reaction was terminated by treatment with a stop solution of 1 N H₂SO₄, and then the absorbance was measured at 450 nm.

T1 sequence (Q08722 19-139 limits assumed): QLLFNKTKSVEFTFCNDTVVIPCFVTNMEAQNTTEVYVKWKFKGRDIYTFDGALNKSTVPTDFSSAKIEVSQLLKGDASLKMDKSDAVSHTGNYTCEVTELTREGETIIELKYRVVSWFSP

OD450 measurements [OD450]	Molecule
2.81	B1
2.85	B2
0.111	B3
0.106	B4
2.58	B5
2.54	B6
2.65	B7
2.74	B8
2.62	B9
2.81	B10
2.67	B11
2.57	B12
0.0966	B13
2.69	B14
0.147	B15
2.45	B16

What follows are molecules tested against CD47 on CD47-overexpressing breast cancer cell line MCF-7 (UniProt Q08722) (assay: flow cytometry on MCF-7 cells, secondary antibody alone (background control)).
CD47 on CD47-overexpressing breast cancer cell line MCF-7, sequence (Q08722 19-323 limits assumed): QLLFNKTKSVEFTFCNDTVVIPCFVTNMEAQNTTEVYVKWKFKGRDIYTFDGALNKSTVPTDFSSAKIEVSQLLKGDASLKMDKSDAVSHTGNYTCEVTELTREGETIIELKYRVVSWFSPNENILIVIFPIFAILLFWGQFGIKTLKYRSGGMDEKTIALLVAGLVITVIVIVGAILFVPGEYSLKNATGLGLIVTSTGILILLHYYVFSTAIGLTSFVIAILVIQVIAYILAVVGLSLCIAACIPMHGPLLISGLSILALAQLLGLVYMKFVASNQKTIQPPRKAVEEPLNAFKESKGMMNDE

Mean	Median	Molecule
80	73.9	PE-conjugated goat anti-mouse IgG antibody (Biolegend Inc., cat #405307)

Each molecule was assayed against CD47 on CD47-overexpressing breast cancer cell line MCF-7 (UniProt Q08722) (assay: flow cytometry on MCF-7 cells, PE anti-human CD47, 5 µl).

Mean	Median	Molecule
11900	11000	CD47 antibody (Biolegend PE anti-human CD47, cat #323108)
